Reference: PMC2875008
Where two headings read alike, the source gives them in different places.

Assays:
[1] = target: T1, hRad52 1-212 (Homo sapiens, UniProt P43351 1-212); assay: FRET titration
T1 sequence: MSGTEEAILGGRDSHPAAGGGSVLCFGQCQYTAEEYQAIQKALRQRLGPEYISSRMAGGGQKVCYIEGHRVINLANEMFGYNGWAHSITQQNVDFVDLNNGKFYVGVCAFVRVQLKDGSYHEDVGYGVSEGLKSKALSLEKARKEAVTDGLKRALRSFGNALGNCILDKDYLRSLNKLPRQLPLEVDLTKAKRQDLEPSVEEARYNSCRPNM

[2] = target: T2, hRPA (Homo sapiens, UniProt P27694;P15927;P35244 1-616;1-270;1-121); assay: FRET titration
[3] = target: T3, hRad52 (Homo sapiens, UniProt P43351 1-418); assay: FRET titration
T3 sequence: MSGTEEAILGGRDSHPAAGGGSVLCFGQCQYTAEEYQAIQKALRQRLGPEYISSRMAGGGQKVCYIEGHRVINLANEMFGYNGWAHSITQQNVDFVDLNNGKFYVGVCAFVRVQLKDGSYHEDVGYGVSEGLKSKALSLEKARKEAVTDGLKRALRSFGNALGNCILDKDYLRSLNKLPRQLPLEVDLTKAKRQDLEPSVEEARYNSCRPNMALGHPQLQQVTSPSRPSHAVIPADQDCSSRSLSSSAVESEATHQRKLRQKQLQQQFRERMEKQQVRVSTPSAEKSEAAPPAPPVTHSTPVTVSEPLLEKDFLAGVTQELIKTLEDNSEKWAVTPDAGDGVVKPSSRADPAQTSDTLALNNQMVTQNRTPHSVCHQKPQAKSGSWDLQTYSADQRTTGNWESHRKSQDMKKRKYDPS

[4] = target: T2, hRPA; assay: FRET titration; remark: listed apart in the source
[5] = target: T1, hRad52 1-212; assay: FRET titration; remark: listed apart in the source
[6] = target: T3, hRad52; assay: EMSA
[7] = target: T3, hRad52; assay: FRET titration; remark: listed apart in the source
[8] = target: T3, hRad52; assay: FRET titration; remark: listed apart in the source

T2 sequence (P27694 whole entry, chain 1 of 3): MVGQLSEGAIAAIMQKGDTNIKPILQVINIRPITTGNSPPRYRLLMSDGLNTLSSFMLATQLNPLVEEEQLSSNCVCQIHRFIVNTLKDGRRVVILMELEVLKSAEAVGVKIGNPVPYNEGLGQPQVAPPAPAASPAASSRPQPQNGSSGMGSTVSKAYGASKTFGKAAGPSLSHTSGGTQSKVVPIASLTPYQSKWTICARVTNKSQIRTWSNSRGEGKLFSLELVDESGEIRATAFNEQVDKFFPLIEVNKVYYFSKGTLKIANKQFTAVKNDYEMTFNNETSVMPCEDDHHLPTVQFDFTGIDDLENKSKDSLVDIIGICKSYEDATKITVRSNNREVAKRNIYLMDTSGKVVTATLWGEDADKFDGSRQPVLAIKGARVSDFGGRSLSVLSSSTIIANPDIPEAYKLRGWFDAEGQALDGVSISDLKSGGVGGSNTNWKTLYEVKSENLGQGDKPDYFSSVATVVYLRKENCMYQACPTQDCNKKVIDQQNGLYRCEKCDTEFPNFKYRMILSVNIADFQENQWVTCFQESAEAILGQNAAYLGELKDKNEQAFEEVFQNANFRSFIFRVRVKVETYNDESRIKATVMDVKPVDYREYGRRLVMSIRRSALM
T2 sequence (P15927 whole entry, chain 2 of 3): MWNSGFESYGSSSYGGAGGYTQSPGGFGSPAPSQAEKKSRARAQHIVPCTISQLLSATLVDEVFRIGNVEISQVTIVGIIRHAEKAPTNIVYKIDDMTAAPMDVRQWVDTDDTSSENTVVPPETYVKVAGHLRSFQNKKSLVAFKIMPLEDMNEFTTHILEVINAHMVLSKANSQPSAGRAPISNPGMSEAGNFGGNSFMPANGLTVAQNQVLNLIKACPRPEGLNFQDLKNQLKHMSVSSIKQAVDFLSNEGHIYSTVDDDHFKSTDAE
T2 sequence (P35244 whole entry, chain 3 of 3): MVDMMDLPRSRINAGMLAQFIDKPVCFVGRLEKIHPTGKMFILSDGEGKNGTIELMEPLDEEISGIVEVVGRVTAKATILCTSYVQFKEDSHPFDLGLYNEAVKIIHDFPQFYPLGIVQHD

B1: poly(dT)-60 (ssDNA)
DNA: TTTTTTTTTTTTTTTTTTTTTTTTTTTTTTTTTTTTTTTTTTTTTTTTTTTTTTTTTTTT
B1: binds [1]; binds [2]; binds [3].

TTTTTTTTTTTTTTTTTTTTTTTTTTTTTT (ssDNA) [poly(dT)-30]: binds [4]; binds [5]; binds [6].

TTTTTTTTTTTTTTTTTTTTTT (ssDNA) [poly(dT)-22]: binds [7].

TTTTTTTTTTTTTTTTTTTTTTTTTTTTTTTTTTTTTTT (ssDNA) [poly(dT)-39]: binds [8].

TTTTTTTTTTTTTTTTTTTTTTTTTTTTTTTTTTTTTTTTTTTTTTTTTT (ssDNA) [poly(dT)-50]: binds [8].
